Columns and labels:
[1] = target: RSV F protein of subtype A strain A2, on virus (respiratory syncytial virus subtype A strain A2) (UniProt P03420); experiment: cell-based or functional assay
[2] = target: HMPV F protein (NL/1/00, A1 sublineage), on virus (human metapneumovirus); experiment: cell-based or functional assay

Sequence of RSV F protein of subtype A strain A2, on virus (respiratory syncytial virus subtype A strain A2) (P03420 26-574): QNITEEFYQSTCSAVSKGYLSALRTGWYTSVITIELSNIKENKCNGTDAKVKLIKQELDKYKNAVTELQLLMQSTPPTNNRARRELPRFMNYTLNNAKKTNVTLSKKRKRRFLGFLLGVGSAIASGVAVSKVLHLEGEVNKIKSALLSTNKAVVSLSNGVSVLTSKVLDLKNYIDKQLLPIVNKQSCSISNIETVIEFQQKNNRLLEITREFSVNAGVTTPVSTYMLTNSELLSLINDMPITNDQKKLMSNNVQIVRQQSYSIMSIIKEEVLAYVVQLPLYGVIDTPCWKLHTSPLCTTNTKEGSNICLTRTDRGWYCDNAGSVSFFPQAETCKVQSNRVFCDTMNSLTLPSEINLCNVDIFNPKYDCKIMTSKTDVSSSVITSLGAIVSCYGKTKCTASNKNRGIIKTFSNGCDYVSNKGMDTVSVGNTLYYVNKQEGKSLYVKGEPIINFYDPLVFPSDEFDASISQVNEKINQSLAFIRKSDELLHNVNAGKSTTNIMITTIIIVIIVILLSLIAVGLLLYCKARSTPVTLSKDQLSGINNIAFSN

Substance MPE8 (antibody) has an RSV-A2 IC50 [1] of 0.04 mg/L and an HMPV-A1 IC50 [2] of 0.07 mg/L.
